T1: RNA polymerase III subunit C160 (S. cerevisiae, UniProt P04051 1-1460)
T1 sequence: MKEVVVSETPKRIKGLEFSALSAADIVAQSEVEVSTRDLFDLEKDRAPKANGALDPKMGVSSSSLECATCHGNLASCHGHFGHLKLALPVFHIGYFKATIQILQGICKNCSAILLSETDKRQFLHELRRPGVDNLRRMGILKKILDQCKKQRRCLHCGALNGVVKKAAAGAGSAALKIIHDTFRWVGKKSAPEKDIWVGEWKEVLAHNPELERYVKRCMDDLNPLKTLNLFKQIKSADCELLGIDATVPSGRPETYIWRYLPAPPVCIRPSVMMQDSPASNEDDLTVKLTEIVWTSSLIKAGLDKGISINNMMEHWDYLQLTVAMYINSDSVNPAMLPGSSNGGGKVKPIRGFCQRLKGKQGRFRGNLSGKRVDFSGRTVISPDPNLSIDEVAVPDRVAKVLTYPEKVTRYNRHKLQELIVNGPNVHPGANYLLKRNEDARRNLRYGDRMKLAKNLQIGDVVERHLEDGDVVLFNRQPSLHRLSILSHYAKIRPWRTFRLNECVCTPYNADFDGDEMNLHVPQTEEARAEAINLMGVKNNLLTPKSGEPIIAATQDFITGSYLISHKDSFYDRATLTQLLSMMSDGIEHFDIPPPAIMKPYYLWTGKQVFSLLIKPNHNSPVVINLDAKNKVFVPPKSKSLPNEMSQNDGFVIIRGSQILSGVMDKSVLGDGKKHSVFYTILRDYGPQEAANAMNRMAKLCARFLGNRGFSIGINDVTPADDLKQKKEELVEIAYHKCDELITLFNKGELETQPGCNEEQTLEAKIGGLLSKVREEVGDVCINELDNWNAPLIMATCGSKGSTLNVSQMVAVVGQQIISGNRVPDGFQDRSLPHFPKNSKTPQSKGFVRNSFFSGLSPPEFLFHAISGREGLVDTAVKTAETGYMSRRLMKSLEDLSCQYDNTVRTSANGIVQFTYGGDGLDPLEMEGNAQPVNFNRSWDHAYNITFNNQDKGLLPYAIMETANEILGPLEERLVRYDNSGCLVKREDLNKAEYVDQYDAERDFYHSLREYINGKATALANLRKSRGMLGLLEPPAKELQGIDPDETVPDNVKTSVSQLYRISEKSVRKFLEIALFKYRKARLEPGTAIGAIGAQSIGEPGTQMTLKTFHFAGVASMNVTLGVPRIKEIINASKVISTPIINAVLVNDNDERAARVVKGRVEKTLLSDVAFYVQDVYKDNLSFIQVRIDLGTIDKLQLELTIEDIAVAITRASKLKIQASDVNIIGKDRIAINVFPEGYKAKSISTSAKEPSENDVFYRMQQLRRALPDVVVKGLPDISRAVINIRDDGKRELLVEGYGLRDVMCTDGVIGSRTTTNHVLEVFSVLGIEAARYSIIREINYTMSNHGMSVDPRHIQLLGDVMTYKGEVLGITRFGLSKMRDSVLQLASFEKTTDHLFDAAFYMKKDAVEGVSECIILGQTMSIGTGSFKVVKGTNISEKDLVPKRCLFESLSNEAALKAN


The binders below were run against T1, RNA polymerase III subunit C160 (assay: cryo-EM structure).

binding result | Binder
binds | Pol III stalk (subunits C17 and C25) (complex, S. cerevisiae) chain 1: MKVLEERNAFLSDYEVLKFLTDLEKKHLWDQKSLAALKKSRSKGKQNRPYNHPELQGITRNVVNYLSINKNFINQEDEGEERESSGAKDAEKSGISKMSDESFAELMTKLNSFKLFKAEKLQIVNQLPANMVHLYSIVEECDARFDEKTIEEMLEIISGYA chain 2: MFILSKIADLVRIPPDQFHRDTISAITHQLNNKFANKIIPNVGLCITIYDLLTVEEGQLKPGDGSSYINVTFRAVVFKPFLGEIVTGWISKCTAEGIKVSLLGIFDDIFIPQNMLFEGCYYTPEESAWIWPMDEETKLYFDVNEKIRFRIEREVFVDVKPKSPKERELEERAQLENEIEGKNEETPQNEKPPAYALLGSCQTDGMGLVSWWE
binds | RNA polymerase III stalk subunit C25 (natural protein, S. cerevisiae) MFILSKIADLVRIPPDQFHRDTISAITHQLNNKFANKIIPNVGLCITIYDLLTVEEGQLKPGDGSSYINVTFRAVVFKPFLGEIVTGWISKCTAEGIKVSLLGIFDDIFIPQNMLFEGCYYTPEESAWIWPMDEETKLYFDVNEKIRFRIEREVFVDVKPKSPKERELEERAQLENEIEGKNEETPQNEKPPAYALLGSCQTDGMGLVSWWE
binds | RNA polymerase III subunit C82 (natural protein, S. cerevisiae) MDELLGEALSAENQTGESTVESEKLVTPEDVMTISSLEQRTLNPDLFLYKELVKAHLGERAASVIGMLVALGRLSVRELVEKIDGMDVDSVKTTLVSLTQLRCVKYLQETAISGKKTTYYYYNEEGIHILLYSGLIIDEIITQMRVNDEEEHKQLVAEIVQNVISLGSLTVEDYLSSVTSDSMKYTISSLFVQLCEMGYLIQISKLHYTPIEDLWQFLYEKHYKNIPRNSPLSDLKKRSQAKMNAKTDFAKIINKPNELSQILTVDPKTSLRIVKPTVSLTINLDRFMKGRRSKQLINLAKTRVGSVTAQVYKIALRLTEQKSPKIRDPLTQTGLLQDLEEAKSFQDEAELVEEKTPGLTFNAIDLARHLPAELDLRGSLLSRKPSDNKKRSGSNAAASLPSKKLKTEDGFVIPALPAAVSKSLQESGDTQEEDEEEEDLDADTEDPHSASLINSHLKILASSNFPFLNETKPGVYYVPYSKLMPVLKSSVYEYVIASTLGPSAMRLSRCIRDNKLVSEKIINSTALMKEKDIRSTLASLIRYNSVEIQEVPRTADRSASRAVFLFRCKETHSYNFMRQNLEWNMANLLFKKEKLKQENSTLLKKANRDDVKGRENELLLPSELNQLKMVNERELNVFARLSRLLSLWEVFQMA
